Source: article PMC8897274 (Structure (London, England : 1993), 2021)
Changes are numbered by the printed parent chain. Blank lines part the entries; values can stand above or below the binder they belong to. Ends that are not written are not given here.

T1: PCNA1–2 heterodimer of S. solfataricus (S. solfataricus, UniProt P57766 1-249; Q97Z84 1-245)
T1 sequence 1: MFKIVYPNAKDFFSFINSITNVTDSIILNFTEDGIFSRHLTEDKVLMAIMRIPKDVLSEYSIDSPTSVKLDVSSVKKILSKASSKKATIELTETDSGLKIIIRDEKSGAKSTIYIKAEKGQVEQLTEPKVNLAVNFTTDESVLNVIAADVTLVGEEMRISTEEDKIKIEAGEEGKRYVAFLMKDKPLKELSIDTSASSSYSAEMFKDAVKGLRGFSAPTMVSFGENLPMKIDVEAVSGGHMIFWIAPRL
T1 sequence 2: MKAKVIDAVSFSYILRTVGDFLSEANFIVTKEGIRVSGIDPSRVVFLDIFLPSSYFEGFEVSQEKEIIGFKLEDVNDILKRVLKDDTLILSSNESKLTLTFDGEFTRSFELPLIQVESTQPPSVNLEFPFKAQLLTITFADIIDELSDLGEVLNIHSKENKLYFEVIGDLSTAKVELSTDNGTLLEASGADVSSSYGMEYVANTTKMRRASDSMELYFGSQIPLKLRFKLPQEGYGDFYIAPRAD

T2: PCNA_(1–2-3) heterotrimer of S. solfataricus (S. solfataricus, UniProt P57766 1-249; Q97Z84 1-245; P57765 1-244)
T2 sequence 1: T1 sequence 1
T2 sequence 2: T1 sequence 2
T2 sequence 3: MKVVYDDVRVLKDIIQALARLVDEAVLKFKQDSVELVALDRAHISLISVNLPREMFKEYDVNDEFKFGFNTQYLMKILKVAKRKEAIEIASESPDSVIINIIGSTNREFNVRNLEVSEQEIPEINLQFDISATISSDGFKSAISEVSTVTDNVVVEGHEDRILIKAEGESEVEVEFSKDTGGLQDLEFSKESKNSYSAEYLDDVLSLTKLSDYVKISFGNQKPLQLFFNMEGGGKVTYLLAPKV

T3: PCNA heterotrimer containing PCNA2 S42C (S. solfataricus, UniProt P57766 1-249; Q97Z84 1-245; P57765 1-244, S42C)
T3 sequence 1: T1 sequence 1
T3 sequence 2: T1 sequence 2 with S42C
T3 sequence 3: T2 sequence 3

T4: PCNA1 subunit of S. solfataricus PCNA (S. solfataricus, UniProt P57766 1-249)
T4 sequence: T1 sequence 1

B1: DNA ligase from S. solfataricus (Lig), wild type (enzyme)
chain: MEFKVIAEYFDKLEKISSRLQLTALLADLLSKSDKTIIDKVVYIIQGKLWPDFLGYPELGIGEKFLIKAISIATNTDENSVENLYKTIGDLGEVARRLKSKQQSTGILGFLGTTSKESLTVDEVYSTLSKVALTTGEGSRDLKIRLLAGLLKKADPLEAKFLVRFVEGRLRVGIGDATVLDAMAIAFGGGQSASEIIERAYNLRADLGNIAKIIVEKGIEALKTLKPQVGIPIRPMLAERLSNPEEILKKMGGNAIVDYKYDGERAQIHKKEDKIFIFSRRLENITSQYPDVVDYVSKYIEGKEFIIEGEIVAIDPESGEMRPFQELMHRKRKSDIYEAIKEYPVNVFLFDLMYYEDVDYTTKPLEARRKLLESIVKPNDYVKIAHHIQANNVEDLKSFFYRAISEGGEGVMVKAIGKDAIYQAGARGWLWIKLKRDYQSEMADTVDLVVVGGFYGKGKRGGKISSLLMAAYNPKTDSFESVCKVASGFSDEQLDELQKKLMEIKRDVKHPRVNSKMEPDIWVEPVYVAEIIGSEITISPLHTCCQDVVEKDAGLSIRFPRFIRWRDDKSPEDATTTDEILEMYNKQPKKKIESPAVDESV
B2: Lig 337 Y-C mutant (enzyme, S. solfataricus)
chain: B1 chain with Y337C
B3: Lig 145 R-D mutant (enzyme, S. solfataricus)
chain: B1 chain with R145D
B4: PCNA2 subunit of S. solfataricus PCNA (natural protein)
chain: T1 sequence 2
B5: Lig 145 R-L mutant (enzyme, S. solfataricus)
chain: B1 chain with R145L
B6: Lig 338 E-C mutant (enzyme, S. solfataricus)
chain: B1 chain with E338C
B7: PCNA3 subunit of S. solfataricus PCNA (natural protein)
chain: T2 sequence 3

Key:
[1] = molecular target: B7; assay: fluorescence polarisation
[2] = molecular target: T1, PCNA1–2 heterodimer of S. solfataricus; assay: fluorescence polarisation
[3] = molecular target: T2, PCNA_(1–2-3) heterotrimer of S. …; assay: fluorescence polarisation
[4] = molecular target: T2, PCNA_(1–2-3) heterotrimer of S. …; assay: SEC-MALS
[5] = molecular target: T3, PCNA heterotrimer containing PCNA2 S42C; assay: cross-linking
[6] = molecular target: T2, PCNA_(1–2-3) heterotrimer of S. …; assay: SEC
[7] = molecular target: B1; assay: negative stain electron microscopy
[8] = molecular target: T4, PCNA1 subunit of S. solfataricus PCNA; assay: cryo-EM structure
[9] = molecular target: B4; assay: cryo-EM structure

Kd [1]: 32.5 ± 6.6 µM | Kd [2]: 177 ± 74.4 µM | Kd [3]: 13.1 ± 2.5 µM
Binder: KSKQQSTGILGFLGTTS (also: 6-FAM label, position not given here) [fluorescently labeled Lig loop peptide (17 residues, PIP motif)]

Binder: B1
stoichiometry N [4]: 1

Binder: B2
binding result [5]: binds

Binder: B3
binding result [6]: binds

Binder: B4
binding result [7]: binds | binding result [8]: binds

Binder: B5
binding result [6]: binds

Binder: B6
binding result [5]: binds

Binder: B7
binding result [7]: binds | binding result [9]: binds | binding result [8]: binds
